Assay [1] concerns the target K63-polyubiquitinated Sic1 (UniProt P38634).
Assay [2] concerns the target K48-linked tetraubiquitin (Homo sapiens) (UniProt P0CG48). The settings on record: cited from earlier work.
Assay [3] has as its target K63-linked tetraubiquitin (Homo sapiens) (UniProt P0CG48). The settings on record: cited from earlier work.
Assay [4] has as its target K63-polyubiquitinated Nedd4 (resin-bound GST-Nedd4, autoubiquitinated) (UniProt P46934). Description: pull-down.

Results on three substances are retold here after PMC3579138.

As a reminder, the Kd is the free concentration of one partner at which half of the binding sites on the other are occupied at equilibrium, for simple one-to-one binding.

Sequence of K63-polyubiquitinated Nedd4 (resin-bound GST-Nedd4, autoubiquitinated) (P46934 whole entry): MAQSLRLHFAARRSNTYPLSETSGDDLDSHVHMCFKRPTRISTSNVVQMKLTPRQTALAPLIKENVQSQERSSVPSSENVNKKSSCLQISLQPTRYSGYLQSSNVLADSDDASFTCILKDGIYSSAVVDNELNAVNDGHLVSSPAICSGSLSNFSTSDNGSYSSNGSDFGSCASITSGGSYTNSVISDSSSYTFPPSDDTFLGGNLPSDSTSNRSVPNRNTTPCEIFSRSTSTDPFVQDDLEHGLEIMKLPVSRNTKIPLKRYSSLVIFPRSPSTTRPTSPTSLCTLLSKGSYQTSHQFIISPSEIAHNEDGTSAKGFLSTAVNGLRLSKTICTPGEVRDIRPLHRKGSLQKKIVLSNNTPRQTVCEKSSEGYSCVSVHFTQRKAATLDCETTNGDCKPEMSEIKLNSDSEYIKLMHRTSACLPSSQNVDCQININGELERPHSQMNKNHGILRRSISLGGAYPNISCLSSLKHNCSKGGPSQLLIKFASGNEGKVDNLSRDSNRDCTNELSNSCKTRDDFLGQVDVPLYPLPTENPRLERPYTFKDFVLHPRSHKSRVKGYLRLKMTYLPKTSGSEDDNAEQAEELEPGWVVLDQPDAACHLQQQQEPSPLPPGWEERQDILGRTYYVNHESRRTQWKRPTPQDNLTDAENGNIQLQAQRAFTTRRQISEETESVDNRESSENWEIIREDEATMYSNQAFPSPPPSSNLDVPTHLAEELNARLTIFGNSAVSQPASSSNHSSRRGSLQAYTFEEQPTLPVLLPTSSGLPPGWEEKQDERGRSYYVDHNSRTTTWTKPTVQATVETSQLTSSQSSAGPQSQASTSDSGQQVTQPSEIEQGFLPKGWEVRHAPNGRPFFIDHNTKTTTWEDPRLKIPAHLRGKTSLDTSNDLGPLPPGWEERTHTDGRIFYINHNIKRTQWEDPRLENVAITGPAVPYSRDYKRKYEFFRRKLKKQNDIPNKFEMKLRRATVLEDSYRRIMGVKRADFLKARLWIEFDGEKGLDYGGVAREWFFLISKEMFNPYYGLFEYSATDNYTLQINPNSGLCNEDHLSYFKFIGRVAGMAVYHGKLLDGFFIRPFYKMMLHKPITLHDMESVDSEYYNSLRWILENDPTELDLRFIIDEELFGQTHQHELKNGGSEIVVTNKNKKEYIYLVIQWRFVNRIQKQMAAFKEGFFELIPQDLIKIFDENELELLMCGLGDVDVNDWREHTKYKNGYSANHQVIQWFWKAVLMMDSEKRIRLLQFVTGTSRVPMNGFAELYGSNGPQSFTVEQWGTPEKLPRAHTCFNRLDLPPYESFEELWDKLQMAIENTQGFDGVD
Sequence of hHR23A UBA2 (P54725 315-361): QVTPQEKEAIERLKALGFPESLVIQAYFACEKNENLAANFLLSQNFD
Sequence of Hrs, purified recombinant (O14964 whole entry): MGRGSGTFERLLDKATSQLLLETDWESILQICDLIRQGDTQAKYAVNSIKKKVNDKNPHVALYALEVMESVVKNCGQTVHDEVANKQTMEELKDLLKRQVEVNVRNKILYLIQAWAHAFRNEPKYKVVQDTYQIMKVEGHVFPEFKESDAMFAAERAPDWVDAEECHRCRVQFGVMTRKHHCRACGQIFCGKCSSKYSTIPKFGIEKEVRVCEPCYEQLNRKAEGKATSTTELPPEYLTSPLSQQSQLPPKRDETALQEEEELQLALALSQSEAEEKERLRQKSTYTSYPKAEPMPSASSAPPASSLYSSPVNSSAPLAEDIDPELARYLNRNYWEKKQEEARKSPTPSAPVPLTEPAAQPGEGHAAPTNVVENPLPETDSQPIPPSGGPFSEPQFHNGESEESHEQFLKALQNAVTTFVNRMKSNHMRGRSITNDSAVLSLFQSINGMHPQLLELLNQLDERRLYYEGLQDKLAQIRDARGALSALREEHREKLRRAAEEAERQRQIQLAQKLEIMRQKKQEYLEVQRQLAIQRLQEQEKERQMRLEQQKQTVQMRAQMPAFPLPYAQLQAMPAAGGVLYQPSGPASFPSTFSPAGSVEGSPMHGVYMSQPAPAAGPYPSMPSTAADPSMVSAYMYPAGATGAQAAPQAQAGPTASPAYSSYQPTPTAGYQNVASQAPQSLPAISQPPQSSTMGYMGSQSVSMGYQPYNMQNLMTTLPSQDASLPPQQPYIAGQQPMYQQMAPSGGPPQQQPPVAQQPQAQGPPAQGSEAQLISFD

On to “Hrs, purified recombinant (from UniProt O14964 1-777) (natural protein)”, for which the percent decrease of conjugate binding to proteasomes at 80nM in assay [1] was found to be 80%.

As to hHR23A UBA2 (from UniProt P54725), the Kd in assay [2] was 8 µM; in assay [3], 28 µM.

For the substance “26S proteasomes purified from rabbit muscle (complex)”, in assay [4], the percent binding with lysate of cells with Hrs and STAM knocked down was found to be 35%; the percent binding with lysate of control cells amounted to 19%; the percent reduction of binding by the cell extract was below 80%.
